Experimental data from article PMC3754857.

Target: OX40-R65C (human OX40 with p.Arg65Cys), expressed ectopically on cells (human) (UniProt P43489)
Assay: flow cytometry on cells

UniProt P43489, sequence (P43489 29-277 R65C): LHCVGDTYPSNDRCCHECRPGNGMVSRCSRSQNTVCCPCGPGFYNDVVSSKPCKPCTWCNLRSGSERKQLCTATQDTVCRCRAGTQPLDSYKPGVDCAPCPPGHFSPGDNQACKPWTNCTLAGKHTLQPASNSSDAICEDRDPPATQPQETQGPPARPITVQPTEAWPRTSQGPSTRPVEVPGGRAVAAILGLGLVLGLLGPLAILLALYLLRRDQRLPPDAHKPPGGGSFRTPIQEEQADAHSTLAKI

biotinylated recombinant soluble human OX40 ligand (OX40L) (from UniProt P23510 51-183)
fold decrease of OX40L binding against cells expressing OX40-WT: 16 fold
